Test system: N[C@H]1C(O)O[C@H](CO)[C@@H](O)[C@@H]1O
Assay: Kinetic analysis of Ef-GPDA with glucosamine (conversion of glucosamine to fructose, photometric at 505 nm after resorcinol derivatization)
Assay type: biochemical, Enterococcus faecalis
Conditions: other: substrate glucosamine (3 to 140 mM solutions, 30 μL), MES buffer pH 7.0, MgCl2, 40° C., 10 h
Method: Reaction mixtures (50 μL) were centrifuged at 12000 g for 10 min at room temperature, and 40 μL samples of the supernatant were taken and mixed with 35 μL conc. HCl and 5 μL of resorcinol-thiourea reagent (consisting of 0.1% (w/V) resorcinol and 0.25% (w/V) in glacial acetic acid). The mixed samples were incubated at 80° C. for 10 min and then centrifuged at 12000 g for 10 min at room temperature. The supernatants (50 μL) were then transferred to 96 microplate and the absorbance at λ=505 nm measured with a microplate photometer (Thermo Multiskan).
Genes encoding the wild-type or mutant variants of GDPA were synthesized in an E. coli codon-optimized form (Genscript) and delivered in a pUC19 vector with ampicillin resistance. The protein-encoding insert was cut via Ndel and Xhol restriction enzymes (Takara) and ligated in a pET30a expression vector via T4 Ligase (Takara). The GPDA enzymes were prepared as follows: a fresh single colony from an LB agar plate supplemented with […] Kanamycin and used to grow E. coli strain BL21 comprising the respective plasmid was used to inoculate 5 mL of LB liquid medium with the same concentration of Kanamycin. Following incubation of said culture over night at 120 rpm and 37° C. 2 mL of the overnight culture was used to inoculate 400 mL of the same medium in a 2 L flask. […]

Ef-GPDA, glucosamine-6-phosphate deaminase from Enterococcus faecalis, wild type, SEQ ID NO: 1 (Enterococcus faecalis V583)
Km: 21.8 ± 2.3 mM | Vmax: 4.0 ± 0.2 µmol/min
